Where two headings read alike, the source gives them in different places.
Assays:
Assay in all cases: cell-based or functional assay
human RXFP1 [1] = biological target: T1, human RXFP1 (human, UniProt Q9HBX9 1-757)
T1 sequence (looked up): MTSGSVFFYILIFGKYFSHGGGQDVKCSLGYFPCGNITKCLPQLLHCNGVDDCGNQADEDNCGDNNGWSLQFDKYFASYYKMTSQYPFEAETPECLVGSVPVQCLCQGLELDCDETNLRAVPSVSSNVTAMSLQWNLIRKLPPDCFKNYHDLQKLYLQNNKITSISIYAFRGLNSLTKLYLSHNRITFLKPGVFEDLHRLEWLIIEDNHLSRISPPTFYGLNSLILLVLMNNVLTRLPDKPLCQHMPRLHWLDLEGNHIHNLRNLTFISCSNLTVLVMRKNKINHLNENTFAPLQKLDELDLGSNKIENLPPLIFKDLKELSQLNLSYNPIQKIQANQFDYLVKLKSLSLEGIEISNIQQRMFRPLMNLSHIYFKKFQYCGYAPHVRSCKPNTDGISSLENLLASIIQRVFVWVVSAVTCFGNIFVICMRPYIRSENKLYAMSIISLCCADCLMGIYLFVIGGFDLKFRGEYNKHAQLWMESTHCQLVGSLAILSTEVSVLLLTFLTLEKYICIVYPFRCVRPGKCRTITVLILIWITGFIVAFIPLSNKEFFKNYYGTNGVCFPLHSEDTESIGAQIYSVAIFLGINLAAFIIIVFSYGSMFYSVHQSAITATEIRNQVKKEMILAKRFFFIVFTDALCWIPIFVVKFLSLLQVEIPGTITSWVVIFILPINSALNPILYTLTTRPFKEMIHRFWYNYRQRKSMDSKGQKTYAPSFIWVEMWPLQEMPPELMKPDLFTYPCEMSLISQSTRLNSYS

mouse RXFP1 [2] = biological target: T2, mouse RXFP1 (mouse, UniProt Q6R6I7 1-758)
T2 sequence (looked up): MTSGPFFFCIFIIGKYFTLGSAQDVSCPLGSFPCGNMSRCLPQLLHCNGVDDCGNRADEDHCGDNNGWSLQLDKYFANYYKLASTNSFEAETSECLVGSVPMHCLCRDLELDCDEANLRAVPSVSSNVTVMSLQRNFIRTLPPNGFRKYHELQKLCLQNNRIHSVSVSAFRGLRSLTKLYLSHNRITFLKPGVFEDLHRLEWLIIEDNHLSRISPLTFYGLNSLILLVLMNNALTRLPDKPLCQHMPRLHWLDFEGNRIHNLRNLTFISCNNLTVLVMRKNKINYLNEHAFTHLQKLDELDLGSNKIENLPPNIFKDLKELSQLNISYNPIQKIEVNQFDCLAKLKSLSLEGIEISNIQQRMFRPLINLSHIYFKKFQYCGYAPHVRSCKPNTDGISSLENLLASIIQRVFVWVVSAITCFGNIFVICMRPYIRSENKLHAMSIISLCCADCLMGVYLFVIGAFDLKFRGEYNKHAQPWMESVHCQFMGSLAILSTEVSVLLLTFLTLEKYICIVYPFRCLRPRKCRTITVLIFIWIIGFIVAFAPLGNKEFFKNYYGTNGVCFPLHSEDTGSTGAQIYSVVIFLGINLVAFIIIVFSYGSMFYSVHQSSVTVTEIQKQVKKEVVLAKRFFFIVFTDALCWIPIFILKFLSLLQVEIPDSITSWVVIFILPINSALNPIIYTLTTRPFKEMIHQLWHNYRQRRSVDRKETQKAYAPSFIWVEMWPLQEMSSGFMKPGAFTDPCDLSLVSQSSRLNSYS

human RXFP2 [3] = biological target: T3, human RXFP2 (human, UniProt Q8WXD0 1-754)
human RXFP1 [4] = biological target: T1, human RXFP1; remark: listed apart in the source
mouse RXFP1 [5] = biological target: T2, mouse RXFP1; remark: listed apart in the source
human RXFP2 [6] = biological target: T3, human RXFP2; remark: listed apart in the source

T3 sequence (Q8WXD0 whole entry): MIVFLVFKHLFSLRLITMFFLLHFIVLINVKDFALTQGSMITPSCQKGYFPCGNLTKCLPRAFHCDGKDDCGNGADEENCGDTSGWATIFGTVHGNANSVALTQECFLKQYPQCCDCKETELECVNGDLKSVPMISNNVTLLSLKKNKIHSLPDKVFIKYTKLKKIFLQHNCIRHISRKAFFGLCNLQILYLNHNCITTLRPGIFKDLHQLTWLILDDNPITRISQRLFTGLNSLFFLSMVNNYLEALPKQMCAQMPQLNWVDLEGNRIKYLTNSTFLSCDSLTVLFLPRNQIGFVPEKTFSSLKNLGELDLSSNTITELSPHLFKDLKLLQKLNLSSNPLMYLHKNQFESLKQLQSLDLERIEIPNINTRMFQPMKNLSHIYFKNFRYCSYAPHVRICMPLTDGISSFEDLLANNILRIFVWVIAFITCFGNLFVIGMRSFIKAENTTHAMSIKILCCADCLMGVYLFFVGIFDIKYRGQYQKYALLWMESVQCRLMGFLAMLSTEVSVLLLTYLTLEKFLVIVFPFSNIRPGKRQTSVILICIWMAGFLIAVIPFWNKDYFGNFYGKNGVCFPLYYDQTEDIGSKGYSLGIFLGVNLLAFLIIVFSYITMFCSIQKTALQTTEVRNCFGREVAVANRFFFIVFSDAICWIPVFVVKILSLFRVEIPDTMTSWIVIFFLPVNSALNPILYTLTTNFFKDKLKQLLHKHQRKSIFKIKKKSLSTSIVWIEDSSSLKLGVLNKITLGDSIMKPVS

B1: RELAX0091 (Fc fusion)
chain 1: QLYSALANKCCHVGCTKRSLARFCAAAGGGGSGGGGSGGGGSGGGGSACPPCPAPEFEGGPSVFLFPPKPKDTLMISRTPEVTCVVVDVSHEDPEVKFNWYVDGVEVHNAKTKPREEQYNSTYRVVSVLTVLHQDWLNGKEYKCKVSNKALPASIEKTISKAKGQPREPQVYTLPPCREEMTKNQVSLWCLVKGFYPSDIAVEWESNGQPENNYKTTPPVLDSDGSFFLYSKLTVDKSRWQQGNVFSCSVMHEALHNHYTQKSLSLSPG
chain 2: SWMEEVIKLCGRELVRAQIAICGMSTWSAAAGGGGSGGGGSGGGGSGGGGSACPPCPAPEFEGGPSVFLFPPKPKDTLMISRTPEVTCVVVDVSHEDPEVKFNWYVDGVEVHNAKTKPREEQYNSTYRVVSVLTVLHQDWLNGKEYKCKVSNKALPASIEKTISKAKGQPREPQVCTLPPSREEMTKNQVSLSCAVKGFYPSDIAVEWESNGQPENNYKTTPPVLDSDGSFFLVSKLTVDKSRWQQGNVFSCSVMHEALHNHYTQKSLSLSPG
Human RXFP1 [1]
  EC50 hRXFP1 (M), cAMP HTRF assay: 5.88e-11 M
Mouse RXFP1 [2]
  EC50 mRXFP1 (M), cAMP HTRF assay: 2.88e-11 M
Human RXFP2 [3]
  EC50 hRXFP2 (M), cAMP HTRF assay: > 1.09e-07 M

B2: RELAX0117 (Fc fusion)
chain 1: QLYSALANKCCHVGCTKRSLARFCAAAGGGGSGGGGSGGGGSGGGGSACPPCPAPEFEGGPSVFLFPPKPKDTLMISRTPEVTCVVVDVSHEDPEVKFNWYVDGVEVHNAKTKPREEQYNSTYRVVSVLTVLHQDWLNGKEYKCKVSNKALPASIEKTISKAKGQPREPQVYTLPPCREEMTKNQVSLWCLVKGFYPSDIAVEWESNGQPENNYKTTPPVLDSDGSFFLYSKLTVDKSRWQQGNVFSCSVMHEALHNHYTQKSLSLSPGGGGGSGGGGSGGGGSGGGGGSQLYSALANKCCHVGCTKRSLARFC
chain 2: SWMEEVIKLCGRELVRAQIAICGMSTWSAAAGGGGSGGGGSGGGGSGGGGSACPPCPAPEFEGGPSVFLFPPKPKDTLMISRTPEVTCVVVDVSHEDPEVKFNWYVDGVEVHNAKTKPREEQYNSTYRVVSVLTVLHQDWLNGKEYKCKVSNKALPASIEKTISKAKGQPREPQVCTLPPSREEMTKNQVSLSCAVKGFYPSDIAVEWESNGQPENNYKTTPPVLDSDGSFFLVSKLTVDKSRWQQGNVFSCSVMHEALHNHYTQKSLSLSPGGGGGSGGGGSGGGGSGGGGGSSWMEEVIKLCGRELVRAQIAICGMSTWS
Human RXFP1 [1]
  EC50 hRXFP1 (M), cAMP HTRF assay: 1.06e-11 M
Mouse RXFP1 [2]
  EC50 mRXFP1 (M), cAMP HTRF assay: 1.74e-11 M
Human RXFP2 [3]
  EC50 hRXFP2 (M), cAMP HTRF assay: 1.61e-08 M

B3: RELAX0020 (Fc fusion)
chain 1: GGAGGACPPCPAPEFEGGPSVFLFPPKPKDTLMISRTPEVTCVVVDVSHEDPEVKFNWYVDGVEVHNAKTKPREEQYNSTYRVVSVLTVLHQDWLNGKEYKCKVSNKALPASIEKTISKAKGQPREPQVYTLPPCREEMTKNQVSLWCLVKGFYPSDIAVEWESNGQPENNYKTTPPVLDSDGSFFLYSKLTVDKSRWQQGNVFSCSVMHEALHNHYTQKSLSLSPGGGGGSGGGGSGGGGSGGGGGSSWMEEVIKLCGRELVRAQIAICGMSTWS
chain 2: GGAGGACPPCPAPEFEGGPSVFLFPPKPKDTLMISRTPEVTCVVVDVSHEDPEVKFNWYVDGVEVHNAKTKPREEQYNSTYRVVSVLTVLHQDWLNGKEYKCKVSNKALPASIEKTISKAKGQPREPQVCTLPPSREEMTKNQVSLSCAVKGFYPSDIAVEWESNGQPENNYKTTPPVLDSDGSFFLVSKLTVDKSRWQQGNVFSCSVMHEALHNHYTQKSLSLSPGGGGGSGGGGSGGGGSGGGGGSQLYSALANKCCHVGCTKRSLARFC
Human RXFP1 [1]
  EC50 hRXFP1 (M), cAMP HTRF assay: 4.41e-11 M
Mouse RXFP1 [2]
  EC50 mRXFP1 (M), cAMP HTRF assay: 2.79e-11 M
Human RXFP2 [3]
  EC50 hRXFP2 (M), cAMP HTRF assay: 3.54e-08 M

B4: RELAX0022 (Fc fusion)
chain 1: GGAGGACPPCPAPEFEGGPSVFLFPPKPKDTLMISRTPEVTCVVVDVSHEDPEVKFNWYVDGVEVHNAKTKPREEQYNSTYRVVSVLTVLHQDWLNGKEYKCKVSNKALPASIEKTISKAKGQPREPQVYTLPPSREEMTKNQVSLSCAVKGFYPSDIAVEWESNGQPENNYKTTPPVLDSDGSFFLVSKLTVDKSRWQQGNVFSCSVMHEALHNHYTQKSLSLSPGGGGGSGGGGSGGGGSGGGGGSQLYSALANKCCHVGCTKRSLARFC
chain 2: GGAGGACPPCPAPEFEGGPSVFLFPPKPKDTLMISRTPEVTCVVVDVSHEDPEVKFNWYVDGVEVHNAKTKPREEQYNSTYRVVSVLTVLHQDWLNGKEYKCKVSNKALPASIEKTISKAKGQPREPQVYTLPPSREEMTKNQVSLWCLVKGFYPSDIAVEWESNGQPENNYKTTPPVLDSDGSFFLYSKLTVDKSRWQQGNVFSCSVMHEALHNHYTQKSLSLSPGGGGGSGGGGSGGGGSGGGGGSSWMEEVIKLCGRELVRAQIAICGMSTWS
Human RXFP1 [1]
  EC50 hRXFP1 (M), cAMP HTRF assay: 4.74e-11 M
Mouse RXFP1 [2]
  EC50 mRXFP1 (M), cAMP HTRF assay: 3.28e-11 M

B5: RELAX0021 (Fc fusion)
chain 1: GGAGGACPPCPAPEFEGGPSVFLFPPKPKDTLMISRTPEVTCVVVDVSHEDPEVKFNWYVDGVEVHNAKTKPREEQYNSTYRVVSVLTVLHQDWLNGKEYKCKVSNKALPASIEKTISKAKGQPREPQVYTLPPSREEMTKNQVSLWCLVKGFYPSDIAVEWESNGQPENNYKTTPPVLDSDGSFFLYSKLTVDKSRWQQGNVFSCSVMHEALHNHYTQKSLSLSPGGGGGSGGGGSGGGGSGGGGGSQLYSALANKCCHVGCTKRSLARFC
chain 2: GGAGGACPPCPAPEFEGGPSVFLFPPKPKDTLMISRTPEVTCVVVDVSHEDPEVKFNWYVDGVEVHNAKTKPREEQYNSTYRVVSVLTVLHQDWLNGKEYKCKVSNKALPASIEKTISKAKGQPREPQVYTLPPSREEMTKNQVSLSCAVKGFYPSDIAVEWESNGQPENNYKTTPPVLDSDGSFFLVSKLTVDKSRWQQGNVFSCSVMHEALHNHYTQKSLSLSPGGGGGSGGGGSGGGGSGGGGGSSWMEEVIKLCGRELVRAQIAICGMSTWS
Human RXFP1 [1]
  EC50 hRXFP1 (M), cAMP HTRF assay: 8.27e-11 M
Mouse RXFP1 [2]
  EC50 mRXFP1 (M), cAMP HTRF assay: 4.14e-11 M

B6: RELAX0023 (Fc fusion)
chain 1: DKTHTCPPCPAPEFEGGPSVFLFPPKPKDTLMISRTPEVTCVVVDVSHEDPEVKFNWYVDGVEVHNAKTKPREEQYNSTYRVVSVLTVLHQDWLNGKEYKCKVSNKALPASIEKTISKAKGQPREPQVYTLPPCREEMTKNQVSLWCLVKGFYPSDIAVEWESNGQPENNYKTTPPVLDSDGSFFLYSKLTVDKSRWQQGNVFSCSVMHEALHNHYTQKSLSLSPGGGGGSGGGGSGGGGSGGGGGSQLYSALANKCCHVGCTKRSLARFC
chain 2: DKTHTCPPCPAPEFEGGPSVFLFPPKPKDTLMISRTPEVTCVVVDVSHEDPEVKFNWYVDGVEVHNAKTKPREEQYNSTYRVVSVLTVLHQDWLNGKEYKCKVSNKALPASIEKTISKAKGQPREPQVCTLPPSREEMTKNQVSLSCAVKGFYPSDIAVEWESNGQPENNYKTTPPVLDSDGSFFLVSKLTVDKSRWQQGNVFSCSVMHEALHNHYTQKSLSLSPGGGGGSGGGGSGGGGSGGGGGSSWMEEVIKLCGRELVRAQIAICGMSTWS
Human RXFP1 [1]
  EC50 hRXFP1 (M), cAMP HTRF assay: 3.77e-11 M
Mouse RXFP1 [2]
  EC50 mRXFP1 (M), cAMP HTRF assay: 3.27e-11 M
Human RXFP2 [3]
  EC50 hRXFP2 (M), cAMP HTRF assay: 3.24e-08 M
Human RXFP1 [4]
  EC50 hRXFP1 (M), cAMP HTRF assay: 3.32e-11 M
Mouse RXFP1 [5]
  EC50 mRXFP1 (M), cAMP HTRF assay: 1.36e-11 M
Human RXFP2 [6]
  EC50 hRXFP2 (M), cAMP HTRF assay: 4.2e-08 M

B7: RELAX0024 (Fc fusion)
chain 1: DKTHTCPPCPAPEFEGGPSVFLFPPKPKDTLMISRTPEVTCVVVDVSHEDPEVKFNWYVDGVEVHNAKTKPREEQYNSTYRVVSVLTVLHQDWLNGKEYKCKVSNKALPASIEKTISKAKGQPREPQVCTLPPSREEMTKNQVSLSCAVKGFYPSDIAVEWESNGQPENNYKTTPPVLDSDGSFFLVSKLTVDKSRWQQGNVFSCSVMHEALHNHYTQKSLSLSPGGGGGSGGGGSGGGGSGGGGGSQLYSALANKCCHVGCTKRSLARFC
chain 2: DKTHTCPPCPAPEFEGGPSVFLFPPKPKDTLMISRTPEVTCVVVDVSHEDPEVKFNWYVDGVEVHNAKTKPREEQYNSTYRVVSVLTVLHQDWLNGKEYKCKVSNKALPASIEKTISKAKGQPREPQVYTLPPCREEMTKNQVSLWCLVKGFYPSDIAVEWESNGQPENNYKTTPPVLDSDGSFFLYSKLTVDKSRWQQGNVFSCSVMHEALHNHYTQKSLSLSPGGGGGSGGGGSGGGGSGGGGGSSWMEEVIKLCGRELVRAQIAICGMSTWS
Human RXFP1 [1]
  EC50 hRXFP1 (M), cAMP HTRF assay: 4.6e-11 M
Mouse RXFP1 [2]
  EC50 mRXFP1 (M), cAMP HTRF assay: 1.56e-11 M
Human RXFP2 [3]
  EC50 hRXFP2 (M), cAMP HTRF assay: 4.26e-08 M
